The text below walks through data of patent publication US20130045305A1.

Assay [1] deals with Val-Gly.
Assay [2] concerns the target glutathione.
In assay [3] the target is Val-Gly. This is another data set of the same source.
The target in assay [4] is glutathione. This is another data set of the same source.

As for “γ-Glutamyltranspeptidase from equine kidney, Sigma, Code G9270-100UN (enzyme)”, the γ-Glu-Val-Gly (ppm) in the reaction mixture after reaction with γ-GTP, 4000 ppm Val-Gly added with Val-Gly [1] was determined as 340 ppm. Besides, the GSH (ppm) in the reaction mixture after reaction with γ-GTP, no Val-Gly added in the assay with glutathione [2] came to 432 ppm.

As to “Gsh2p (glutathione synthetase) of Saccharomyces cerevisiae (enzyme)”, the γ-EVG, µg 1^-1 OD600^-1, formed in cells cultured with 100 ppm γ-Glu-Val, strain S288C ura3Δ227/YEp24-PTDH3-GSH2 (µg 1^-1 OD600^-1) with γ-Glu-Val is 705.

As to “Glutaminase Daiwa SD-C100S, Daiwa kasei (enzyme)”, in the assay with Val-Gly [3], the γ-Glu-Val-Gly (ppm) in the reaction mixture after reaction with glutaminase, 4000 ppm Val-Gly added turned out to be 16 ppm. Further, the GSH (ppm) in the reaction mixture after reaction with glutaminase, no Val-Gly added with glutathione [4] turned out to be 3.1 ppm.

B1: Hgt1p of Saccharomyces cerevisiae (protein)
chain: MSTIYRESDSLESEPSPTPTTIPIQINMEEEKKDAFVKNIDEDVNNLTATTDEEDRDPESQKFDRHSIQEEGLVWKGDPTYLPNSPYPEVRSAVSIEDDPTIRLNHWRTWFLTTVFVVVFAGVNQFFSLRYPSLEINFLVAQVVCYPIGRILALLPDWKCSKVPFFDLNPGPFTKKEHAVVTIAVALTSSTAYAMYILNAQGSFYNMKLNVGYQFLLVWTSQMIGYGAAGLTRRWVVNPASSIWPQTLISVSLFDSLHSRKVEKTVANGWTMPRYRFFLIVLIGSFIWYWVPGFLFTGLSYFNVILWGSKTRHNFIANTIFGTQSGLGALPITFDYTQVSQAMSGSVFATPFYVSANTYASVLIFFVIVLPCLYFTNTWYAKYMPVISGSTYDNTQNKYNVTKILNEDYSINLEKYKEYSPVFVPFSYLLSYALNFAAVIAVFVHCILYHGKDIVAKFKDRKNGGTDIHMRIYSKNYKDCPDWWYLLLQIVMIGLGFVAVCCFDTKFPAWAFVIAILISLVNFIPQGILEAMTNQHVGLNIITELICGYMLPLRPMANLLFKLYGFIVMRQGLNLSRDLKLAMYMKVSPRLIFAVQIYATIISGMVNVGVQEWMMHNIDGLCTTDQPNGFTCANGRTVFNASIIWSLPKYLFSSGRIYNPLMWFFLIGLLFPLAVYAVQWKFPKFKFAKHIHTPVFFTGPGNIPPSTPYNYSLFFAMSFCLNLIRKRWRAWFNKYNFVMGAGVEAGVAISVVIIFLCVQYPGGKLSWWGNNVWKRTYDNDYKKFYTLKKGETFGYDKWW
As to B1, the intracellular content of γ-Glu-nVal-Gly on the dry weight cell, 100 ppm added in the assay with γ-Glu-nVal-Gly amounted to 2.84%.
